Patent US20240189352A1 (published 2024)
One block for each binder: values may come before it.

Tests used:
Assay in all cases: cytokine release
[1] = target: T1, RAC2 P29L peptide on HLA-A*02:01 (human)
T1 peptide: FLGEYIPTV

[2] = target: T2, RAC1 P29S peptide on HLA-A*02:01 (human)
T2 peptide: FSGEYIPTV

[3] = target: T3, RAC2 P29L, position 1 replaced by alanine peptide on HLA-A*02:01 (human)
T3 peptide: ALGEYIPTV

[4] = target: T4, RAC2 P29L, position 2 replaced by alanine peptide on HLA-A*02:01 (human)
T4 peptide: FAGEYIPTV

[5] = target: T5, RAC2 P29L, position 3 replaced by alanine peptide on HLA-A*02:01 (human)
T5 peptide: FLAEYIPTV

[6] = target: T6, RAC2 P29L, position 4 replaced by alanine peptide on HLA-A*02:01 (human)
T6 peptide: FLGAYIPTV

[7] = target: T7, RAC2 P29L, position 6 replaced by alanine peptide on HLA-A*02:01 (human)
T7 peptide: FLGEYAPTV

binding result [1]: recognises | binding result [2]: recognises | binding result [3]: recognises | binding result [4]: recognises | binding result [5]: recognises | binding result [6]: recognises
B1: RAC2-T001 (TCR, V domains shown)
Valpha: GENVEQHPSTLSVQEGDSAVIKCTYSDSASNYFPWYKQELGKGPQLIIDIRSNVGEKKDQRIAVTLNKTAKHFSLHITETQPEDSAVYFCAASMGNAGNMLTFGGGTRLMVKP
Vbeta: EPEVTQTPSHQVTQMGQEVILRCVPISNHLYFYWYRQILGQKVEFLVSFYNNEISEKSEIFDDQFSVERPDGSNFTLKIRSTKLEDSAMYFCASSETSGASYEQYFGPGTRLTVT

binding result [1]: recognises | binding result [7]: recognises | binding result [2]: recognises | binding result [3]: recognises | binding result [4]: recognises | binding result [5]: recognises
B2: RAC2-T002 (TCR, V domains shown)
Valpha: AQSVTQLGSHVSVSEGALVLLRCNYSSSVPPYLFWYVQYPNQGLQLLLKYTTGATLVKGINGFEAEFKKSETSFHLTKPSAHMSDAAEYFCAVGANNLFFGTGTRLTVIP
Vbeta: EPEVTQTPSHQVTQMGQEVILRCVPISNHLYFYWYRQILGQKVEFLVSFYNNEISEKSEIFDDQFSVERPDGSNFTLKIRSTKLEDSAMYFCASSEWRGSSYNEQFFGPGTRLTVL
